Consider two substances from article PMC5114276.

Assay [1] addresses connexin36 (Cx36), rat, full length, fluorescently tagged (rat) (UniProt O70610). The assay can be described thus: FRET or BRET; acceptor bleach FRET on a confocal microscope, Neuro2a cells 48 h after transient co-transfection; read at gap junction plaques (GJP) or at vesicles; non-stimulated or with 2 mM [Ca2+]E and 2 μM ionomycin, 24 μM BAPTA-AM or 10 μM W-7; FRET distance calculated from the efficiency (Ro 5.09), threshold 10 nm.

For assay [2] the target is unchanged.
For assay [3], the target named is Cx36 mutant G276A, rat, full length, fluorescently tagged (rat) (UniProt O70610). The assay can be described thus: FRET or BRET; acceptor bleach FRET on a confocal microscope, Neuro2a cells 48 h after transient co-transfection; read at gap junction plaques (GJP) or at vesicles; non-stimulated or with 2 mM [Ca2+]E and 2 μM ionomycin, 24 μM BAPTA-AM or 10 μM W-7; FRET distance calculated from the efficiency (Ro 5.09), threshold 10 nm.

Assay [4] addresses Cx36 mutant R278A, rat, full length, fluorescently tagged (rat) (UniProt O70610). The assay is described as above.

For “calcium insensitive mutant CaM_(E1234Q) (from UniProt P0DP29 1-149) (natural protein)”, in assay [1], the FRET distance (GJP, non-stimulated) was 10.9 nm; the FRET distance (GJP, stimulated with Ca2+ and ionomycin) is 10.1 nm; the FRET distance (vesicles, non-stimulated) is 9.96 nm; the FRET distance (vesicles, stimulated with Ca2+ and ionomycin) was 10.8 nm.
In assay [2], “calmodulin (CaM), rat, full length, fluorescently tagged (from UniProt P0DP29 1-149) (natural protein)” had an ethidium bromide fluorescence recovery after photobleaching in pairs of Neuro2a cells expressing Cx36–ECFP (CaM of the cells), non-stimulated of 5.82%; an ethidium bromide fluorescence recovery after photobleaching in pairs of Neuro2a cells expressing Cx36–ECFP (CaM of the cells), stimulated with 2 mM [Ca2+]E and 2 μM ionomycin of 47.5%; an ethidium bromide fluorescence recovery after photobleaching in pairs of Neuro2a cells expressing Cx36–ECFP, CaM blocked with 10 μM W-7, non-stimulated of 16.6%; an ethidium bromide fluorescence recovery after photobleaching in pairs of Neuro2a cells expressing Cx36–ECFP, CaM blocked with 10 μM W-7, stimulated with 2 mM [Ca2+]E and 2 μM ionomycin of 3.77%. Moreover, in assay [3], the FRET distance (vesicles, non-stimulated) is 8.16 nm; the FRET distance (vesicles, stimulated with Ca2+ and ionomycin) was 7.48 nm; the FRET efficiency (vesicles, non-stimulated) was 6.61%; the FRET efficiency (vesicles, stimulated with Ca2+ and ionomycin) is 9.74%. Moreover, in assay [1], the FRET distance (GJP, non-stimulated) is 9.11 nm; the FRET distance (GJP, stimulated with Ca2+ and ionomycin) is 9.61 nm; the FRET distance (vesicles, non-stimulated) is 9.27 nm; the FRET distance (vesicles, non-stimulated; panel of the alanine mutants) is 9.15 nm. Moreover, in assay [1], the FRET distance (vesicles, stimulated with Ca2+ and ionomycin) is 8.09 nm; the FRET distance (vesicles, stimulated with Ca2+ and ionomycin; panel of the alanine mutants) is 7.69 nm; the FRET efficiency (GJP, 10 μM W-7) is 2.7%; the FRET efficiency (GJP, 24 μM BAPTA-AM) is 2.8%. Further, in assay [1], the FRET efficiency (GJP, non-stimulated; FRET pair I Cx36–DsRed, CaM–ECFP) is 3.23%; the FRET efficiency (GJP, non-stimulated; FRET pair II Cx36–ECFP, CaM–DsRed) is 3.35%; the FRET efficiency (GJP, stimulated with Ca2+ and ionomycin) was 2.8%; the FRET efficiency (vesicles, non-stimulated; FRET pair I Cx36–DsRed, CaM–ECFP) is 3.65%. For the same substance, in assay [1], the FRET efficiency (vesicles, non-stimulated; FRET pair II Cx36–ECFP, CaM–DsRed) was 3.09%; the FRET efficiency (vesicles, stimulated with Ca2+ and ionomycin) was 6.38%; the FRET efficiency (vesicles, stimulated with Ca2+ and ionomycin; panel of the alanine mutants) is 8.82%. For the same substance, in assay [4], the FRET distance (vesicles, non-stimulated) is 9.33 nm; the FRET distance (vesicles, stimulated with Ca2+ and ionomycin) was 8.26 nm; the FRET efficiency (vesicles, non-stimulated) was 2.84%; the FRET efficiency (vesicles, stimulated with Ca2+ and ionomycin) was 6.54%.
